Test results as given in patent publication US20180327506A1 (AbbVie / Abbott, published 2018).
Like-named read-outs stand apart in the source and are kept apart here.

T1: full-length mature human EMR2 (residues Q24-N823) with N-terminal aspartic acid/lysine epitope tag, … (human, UniProt Q9UHX3 24-823)
T1 sequence: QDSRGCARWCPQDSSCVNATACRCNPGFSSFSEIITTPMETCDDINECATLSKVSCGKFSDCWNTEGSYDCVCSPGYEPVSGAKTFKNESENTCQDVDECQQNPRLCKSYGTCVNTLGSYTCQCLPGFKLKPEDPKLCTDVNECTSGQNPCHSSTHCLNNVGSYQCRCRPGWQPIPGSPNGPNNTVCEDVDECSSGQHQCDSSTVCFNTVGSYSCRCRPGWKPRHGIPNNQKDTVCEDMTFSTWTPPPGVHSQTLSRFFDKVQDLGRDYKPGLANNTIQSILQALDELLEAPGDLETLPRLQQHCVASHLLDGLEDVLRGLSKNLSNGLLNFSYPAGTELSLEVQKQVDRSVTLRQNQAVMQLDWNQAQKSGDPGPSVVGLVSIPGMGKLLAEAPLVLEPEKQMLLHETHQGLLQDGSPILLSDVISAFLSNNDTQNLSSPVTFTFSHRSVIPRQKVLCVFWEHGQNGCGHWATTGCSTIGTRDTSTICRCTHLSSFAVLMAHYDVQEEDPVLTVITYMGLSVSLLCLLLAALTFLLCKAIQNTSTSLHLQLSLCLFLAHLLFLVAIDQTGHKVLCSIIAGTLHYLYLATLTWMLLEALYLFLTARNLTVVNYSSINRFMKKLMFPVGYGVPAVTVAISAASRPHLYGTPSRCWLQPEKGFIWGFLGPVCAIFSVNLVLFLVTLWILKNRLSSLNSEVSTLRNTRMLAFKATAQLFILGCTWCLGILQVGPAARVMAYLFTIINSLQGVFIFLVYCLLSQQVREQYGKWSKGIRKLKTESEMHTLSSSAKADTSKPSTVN

T2: full-length mature human CD97 (residues Q21-I845) with N-terminal aspartic acid/lysine epitope tag, … (human, UniProt P48960 21-835)
T2 sequence (looked up): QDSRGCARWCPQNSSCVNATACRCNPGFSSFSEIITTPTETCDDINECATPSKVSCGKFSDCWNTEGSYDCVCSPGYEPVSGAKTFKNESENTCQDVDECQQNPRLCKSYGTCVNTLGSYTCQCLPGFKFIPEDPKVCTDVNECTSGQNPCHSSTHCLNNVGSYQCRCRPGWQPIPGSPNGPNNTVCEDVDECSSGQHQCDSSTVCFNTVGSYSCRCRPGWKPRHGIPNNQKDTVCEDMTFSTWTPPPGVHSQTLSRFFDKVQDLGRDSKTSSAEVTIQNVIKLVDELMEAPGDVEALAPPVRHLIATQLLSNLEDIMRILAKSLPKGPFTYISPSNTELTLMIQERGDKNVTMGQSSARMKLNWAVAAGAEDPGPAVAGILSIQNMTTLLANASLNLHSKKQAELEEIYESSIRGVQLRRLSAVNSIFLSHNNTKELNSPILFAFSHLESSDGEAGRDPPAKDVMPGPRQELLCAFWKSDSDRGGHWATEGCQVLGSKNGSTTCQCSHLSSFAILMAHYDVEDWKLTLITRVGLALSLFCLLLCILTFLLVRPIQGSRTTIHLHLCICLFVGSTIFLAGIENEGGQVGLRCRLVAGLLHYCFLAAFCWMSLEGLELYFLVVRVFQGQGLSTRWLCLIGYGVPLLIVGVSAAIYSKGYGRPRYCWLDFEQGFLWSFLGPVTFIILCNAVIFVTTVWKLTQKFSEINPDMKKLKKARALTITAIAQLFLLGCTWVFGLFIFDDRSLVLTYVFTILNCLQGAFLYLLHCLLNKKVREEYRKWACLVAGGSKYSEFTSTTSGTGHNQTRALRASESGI

T3: full-length mature cynomolgus EMR2 (residues Q24-N816) with N-terminal aspartic acid/lysine epitope tag, … (cynomolgus monkey (Macaca fascicularis), UniProt A0A2K5WL23 21-816)
T3 sequence: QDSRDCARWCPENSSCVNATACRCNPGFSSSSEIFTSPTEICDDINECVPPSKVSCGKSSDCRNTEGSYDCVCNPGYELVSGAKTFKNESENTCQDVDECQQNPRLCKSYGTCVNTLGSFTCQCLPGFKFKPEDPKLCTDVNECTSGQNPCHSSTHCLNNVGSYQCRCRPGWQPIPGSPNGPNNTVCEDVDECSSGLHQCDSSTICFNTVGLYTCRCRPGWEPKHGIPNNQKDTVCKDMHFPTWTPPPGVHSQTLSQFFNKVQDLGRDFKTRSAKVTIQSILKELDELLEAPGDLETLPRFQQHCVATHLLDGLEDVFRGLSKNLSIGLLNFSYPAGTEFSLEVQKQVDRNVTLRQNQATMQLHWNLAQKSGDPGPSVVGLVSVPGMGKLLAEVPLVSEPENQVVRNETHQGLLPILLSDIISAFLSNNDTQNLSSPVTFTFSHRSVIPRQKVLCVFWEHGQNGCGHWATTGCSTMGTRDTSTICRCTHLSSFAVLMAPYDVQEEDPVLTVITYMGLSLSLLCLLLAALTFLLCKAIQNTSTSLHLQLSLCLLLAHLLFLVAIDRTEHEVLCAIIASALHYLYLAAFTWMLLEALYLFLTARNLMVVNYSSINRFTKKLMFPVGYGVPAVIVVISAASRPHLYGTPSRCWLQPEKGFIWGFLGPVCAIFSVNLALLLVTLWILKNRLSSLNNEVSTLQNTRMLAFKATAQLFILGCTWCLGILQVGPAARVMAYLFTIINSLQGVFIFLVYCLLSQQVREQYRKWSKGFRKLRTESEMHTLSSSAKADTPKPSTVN

B1: SC93.266 (antibody, V domains shown)
VH: EVKLEESGGGLVQPGGSMKLSCAASGFTFSDAWMDWVRQSPEKGLEWVAEIRSKVNNHETYYAESVKGRFTISRDDSKSSVYLQMNSLRAEDTGIYYCIRNDYFDYWGQGTTLTVSS
VL: DIQMTQTTSSLSASLGDRVTISCSASQGIRNYLNWYQQKPDGTVKLLIYYTSRLHSGVPSRFSGSGSGTDYSLTISNLEPEDIATYYCQQYGKLPYTFGGGTKLEIN
notes: Murine hybridoma antibody
B2: SC93.160 (antibody, IgG2a, V domains shown)
VH: QILLVQSGPELKKPGETVKISCKASGYTFTDYGIHWVKQAPGKGLKWMGWINTKTGVPTYADDFKGRFAFSLETSASTAYLQINNLKIEDTATYFCAGGNSLYYGSRPYWGQGTLVTVSA
VL: DIVMTQSPSSLTVTAGEKVTMSCKSSQSLLNSGNQKNYLTWYQQKPGQPPKLLIYWASTRESGVPDRFTGSGSGTDFTLTISSVQAEDLAVYYCQNDYSYPTFGSGTKLELK
notes: murine, IgG2a

Tests used:
[1] = target: T1, full-length mature human EMR2 (residues …); experiment: cell-based or functional assay
[2] = target: T2, full-length mature human CD97 (residues …); experiment: cell-based or functional assay
[3] = target: T3, full-length mature cynomolgus EMR2 …; experiment: cell-based or functional assay
[4] = target: T2, full-length mature human CD97 (residues …); experiment: flow cytometry on HEK293T cells overexpressing hCD97
Method: (§1) The exemplary antibodies were also tested using flow cytometry to determine their ability to associate with hEMR2, cEMR2 and CD97 expressed on the surface of cells.

[5] = target: T1, full-length mature human EMR2 (residues …); experiment: flow cytometry on transduced HEK293T; 293 naive MFI 102
Method: as §1

[6] = target: T2, full-length mature human CD97 (residues …); experiment: as above
Method: as §1

[7] = target: T3, full-length mature cynomolgus EMR2 …; experiment: as above
Method: as §1

[8] = target: T1, full-length mature human EMR2 (residues …); experiment: cell-based or functional assay; remark: listed apart in the source
[9] = target: T2, full-length mature human CD97 (residues …); experiment: cell-based or functional assay; remark: listed apart in the source
[10] = target: T3, full-length mature cynomolgus EMR2 …; experiment: cell-based or functional assay; remark: listed apart in the source
[11] = target: T1, full-length mature human EMR2 (residues …); experiment: flow cytometry on transduced HEK293T; 293 naive MFI 67.6
Method: as §1

[12] = target: T2, full-length mature human CD97 (residues …); experiment: as above
Method: as §1

[13] = target: T3, full-length mature cynomolgus EMR2 …; experiment: as above
Method: as §1

Binder	% live, FAB-saporin killing assay [1]	% live, FAB-saporin killing assay [2]	% live, FAB-saporin killing assay [3]	binding result [4]	FC MFI [5]	FC MFI [6]	FC MFI [7]	% live, FAB-saporin killing assay [8]	% live, FAB-saporin killing assay [9]	% live, FAB-saporin killing assay [10]	FC MFI [11]	FC MFI [12]	FC MFI [13]
B1	13.1%	99.2%	12.7%	no binding	49900	98.3	40400						
B2								96.8%	105%	101%	26000	61.8	62.6
